Laboratory results as given in patent US9296810 (Novartis, dated 2016).
Changes are numbered by the printed parent chain. Blank lines part the entries; values can stand above or below the binder they belong to.

Key:
[1] = target: T1, hen egg white lysozyme (hen, UniProt P00698 19-147, biotinylated (HEL-b); sites not stated); assay: yeast display selection
T1 construct: also called lyzozyme; HEL-b (biotinylated)

[2] = target: Human Serum Albumin (HSA) (human, UniProt P02768 25-609); assay: yeast display selection
Chain of Human Serum Albumin (HSA) (P02768 25-609 limits assumed): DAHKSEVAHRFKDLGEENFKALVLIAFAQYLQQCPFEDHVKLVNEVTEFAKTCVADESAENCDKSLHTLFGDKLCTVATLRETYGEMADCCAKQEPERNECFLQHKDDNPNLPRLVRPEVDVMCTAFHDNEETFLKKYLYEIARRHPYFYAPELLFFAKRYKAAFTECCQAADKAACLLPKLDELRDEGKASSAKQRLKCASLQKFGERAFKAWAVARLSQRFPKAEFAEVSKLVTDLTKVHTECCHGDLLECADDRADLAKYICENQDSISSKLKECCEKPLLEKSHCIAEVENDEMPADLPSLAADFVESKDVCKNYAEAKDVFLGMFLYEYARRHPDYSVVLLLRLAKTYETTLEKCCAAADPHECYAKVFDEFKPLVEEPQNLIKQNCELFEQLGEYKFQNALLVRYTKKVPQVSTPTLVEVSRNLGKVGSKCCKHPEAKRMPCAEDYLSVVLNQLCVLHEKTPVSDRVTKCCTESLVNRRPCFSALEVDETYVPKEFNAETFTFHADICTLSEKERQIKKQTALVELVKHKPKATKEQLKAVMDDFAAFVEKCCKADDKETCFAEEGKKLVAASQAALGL

T1 sequence (P00698 19-147 limits assumed): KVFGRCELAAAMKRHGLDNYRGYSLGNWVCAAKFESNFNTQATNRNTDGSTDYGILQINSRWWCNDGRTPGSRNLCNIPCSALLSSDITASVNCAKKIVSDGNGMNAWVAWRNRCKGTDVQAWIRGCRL

binding result [1]: binds
B1: SEQ ID NO 76 (designed binder)
chain: VSDVPRDLEVVAATPTSLLISWDAPAVTVRYYRITYGESSGRYRQEFTVPGSKSTATISRYPHGVDYTITVYAVTGRGESPASSKPISINYAKNV

binding result [1]: binds
B3: SEQ ID NO 83 (designed binder)
chain: VSDVPRDLEVVAATPTSLLISWDAPAVTVRYYRITYGEAHEYYYQEFTVPGSKSTATISRSSSSVDYTITVYAVTGRGESPASSKPISINYYGRY

binding result [1]: binds
B4: SEQ ID NO 84 (designed binder)
chain: VSDVPRDLEVVAATPTSLLISWDAPAVTVRYYRITYGEAGYSGGQEFTVPGSKSTATISERAEYVDYTITVYAVTGRGESPASSKPISINYERRY

binding result [1]: binds
B5: SEQ ID NO 85 (designed binder)
chain: B4 chain with A39L, G40S, Y41R, G44S, E60G, R61S, A62Y, E63G, R93Q, R94S

binding result [1]: binds
B6: SEQ ID NO 81 (designed binder)
chain: VSDVPRDLEVVAATPTSLLISWDAPAVTVRYYRITYGESHHYGPQEFTVPGSKSTATISLLGAHVDYTITVYAVTGRGESPASSKPISINYHGLY

binding result [2]: binds
B7: SEQ ID NO 9 (designed binder)
chain: VSDVPRDLEVVAATPTSLLISWDAPAVTVRYYRITYGQLDKKHHDAEFTVPGSKSTATITRLKRGRDYTITVYAVTGRGDSPASSKPISINYSPER

binding result [1]: binds
B9: SEQ ID NO 59 (designed binder)
chain: B4 chain with A39Y, G43R, G44S, E60Y, R61S, A62S, E63P, Y64R, E92G, R93S

binding result [1]: binds
B11: SEQ ID NO 86 (designed binder)
chain: VSDVPRDLEVVAATPTSLLISWDAPAVTVRYYRITYGELPSQGRQEFTVPGSKSTATISYRRELVDYTITVYAVTGRGESPASSKPISINYGSSY

binding result [1]: binds
B13: SEQ ID NO 55 (designed binder)
chain: VSDVPRDLEVVAATPTSLLISWDAPAVTVRYYRITYGEGQGAGASQEFTVPGSKSTATISGAEPAVDYTITVYAVTGRGESPASSKPISINYGPRY

binding result [1]: binds
B14: SEQ ID NO 78 (designed binder)
chain: VSDVPRDLEVVAATPTSLLISWDAPAVTVRYYRITYGEQRARSRQEFTVPGSKSTATISEQRRRVDYTITVYAVTGRGESPASSKPISINYRALL

binding result [1]: binds
B16: SEQ ID NO 72 (designed binder)
chain: VSDVPRDLEVVAATPTSLLISWDAPAVTVRYYRITYGERGGYSSQEFTVPGSKSTATISSRYRQVDYTITVYAVTGRGESPASSKPISINYQSYS

binding result [2]: binds
B18: SEQ ID NO 13 (designed binder)
chain: VSDVPRDLEVVAATPTSLLISWDAPAVTVRYYRITYGTSVDDRKLREFTVPGSKSTATISRLKRGRDYTITVYAVTGRGDSPASSKPISINYRAEN

binding result [1]: binds
B20: SEQ ID NO 53 (designed binder)
chain: VSDVPRDLEVVAATPTSLLISWDAPAVTVRYYRITYGESSPEYRGQEFTVPGSKSTATISLEEYEVDYTITVYAVTGRGESPTSSKPISINYQYRY

binding result [2]: binds
B21: SEQ ID NO 12 (designed binder)
chain: VSDVPRDLEVVAATPTSLLISWDAPAVTVRYYRITYGRTKGKSKLKEFTVPGSKSTATIPGLKQGEDYTITVYAVTGRGDSPASSKPISINYMFER

binding result [1]: binds
B22: SEQ ID NO 57 (designed binder)
chain: VSDVPRDLEVVAATPTSLLISWDAPAVTVRYYRITYGEGSLLYHSQEFTVPGSKSTATISYGPASVDYTITVYAVTGRGESPASSKPISINYRRRY

binding result [1]: binds
B24: SEQ ID NO 71 (designed binder)
chain: VSDVPRDLEVVAATPTSLLISWDAPAVTVRYYRITYGERGSGLGYQEFTVPGSKSTATISSRAYRVDYTITVYAVTGRGESPASSKPISINYALYE

binding result [1]: binds
B27: SEQ ID NO 65 (designed binder)
chain: VSDVPRDLEVVAATPTSLLISWDAPAVTVRYYRITYGERLREGGSQEFTVPGSKSTATISRAGERVDYTITVYAVTGRGESPASSKPISINYAQYP

binding result [2]: binds
B28: SEQ ID NO 7 (designed binder)
chain: VSDVPRDLEVVAATPTSLLISWDAPAVTVRYYRITYGKTEGHRHSHEFTVPGSKSTATISGLKHGDDYTITVYAVTGRGDSPASSKPISINYRMEK

binding result [1]: binds
B32: SEQ ID NO 61 (designed binder)
chain: VSDVPRDLEVVAATPTSLLISWDAPAVTVRYYRITYGEPRSEEGEQEFTVPGSKSTATISRRYSLVDYTITVYAVTGRGESPASSKPISINYYSSR

binding result [1]: binds
B33: SEQ ID NO 64 (designed binder)
chain: VSDVPRDLEVVAATPTSLLISWDAPAVTVRYYRITYGERRSHRERQEFTVPGSKSTATISRRRRRVDYTITVYAVTGRGESPASSKPISINYSRRR

binding result [2]: binds
B34: SEQ ID NO 11 (designed binder)
chain: VSDVPRDLEVVAATPTSLLISWDAPAVTVRYYRITYGKKDRASHLKEFTVPGSKSTATIGHIKGGYDYTITVYAVTGRGDSPASSKPISINYSGEP

binding result [1]: binds
B35: SEQ ID NO 63 (designed binder)
chain: VSDVPRDLEVVAATPTSLLISWDAPAVTVRYYRITYGERERQHGYQEFTVPGSKSTATISRYRRRVDYTITVYAVTGRGESPASSKPISINYEPGY

More lines, now with the values behind:

B2: SEQ ID NO 67 (designed binder)
chain: VSDVPRDLEVVAATPTSLLISWDAPAVTVRYYRITYGEYYARPEYQEFTVPGSKSTATISYYEPEVDYTITVYAVTGRGESPASSKPISINYRSYP
binding result [1]: binds

B8: SEQ ID NO 58 (designed binder)
chain: VSDVPRDLEVVAATPTSLLISWDAPAVTVRYYRITYGESSHGRSQEFTVPGSKSTATISSSSSRVDYTITVYAVTGRGESPASSKPISINYGYRG
binding result [1]: binds

B10: SEQ ID NO 75 (designed binder)
chain: VSDVPRDLEVVAATPTSLLISWDAPAVTVRYYRITYGEYGGSQAQEFTVPGSKSTATISREYGSVDYTITVYAVTGRGESPASSKPISINYALGE
binding result [1]: binds

B12: SEQ ID NO 56 (designed binder)
chain: VSDVPRDLEVVAATPTSLLISWDAPAVTVRYYRITYGEYLYHHGQEFTVPGSKSTATISYRSAPVDYTITVYAVTGRGESPASSKPISINYRHER
binding result [1]: binds

B15: SEQ ID NO 10 (designed binder)
chain: VSDVPRDLEVVAATPTSLLISWDAPAVTVRYYRITYGKTGHKSSDHEFTVPGSKSTATIGGMKGGVDYTITVYAVTGRGDSPASSKPISINYRFER
binding result [2]: binds

B17: SEQ ID NO 62 (designed binder)
chain: VSDVPRDLEVVAATPTSLLISWDAPAVTVRYYRITYGEAASSRLRQEFTVPGSKSTATISSYSGLVDYTITVYAVTGRGESPASSKPISINYYSSY
binding result [1]: binds

B19: SEQ ID NO 52 (designed binder)
chain: B20 chain with P41R, E42S, Y43P, L61R, E62A, E65R, T83A, Q93Y, Y94L, Y96Q
binding result [1]: binds

B23: SEQ ID NO 74 (designed binder)
chain: VSDVPRDLEVVAATPTSLLISWDAPAVTVRYYRITYGEYEPYGSQYQEFTVPGSKSTATISERQHAVDYTITVYAVTGRGESPASSKPISINYRRYE
binding result [1]: binds

B25: SEQ ID NO 70 (designed binder)
chain: VSDVPRDLEVVAATPTSLLISWDAPAVTVRYYRITYGESHQGLSYQEFTVPGSKSTATISPGSSSVDYTITVYAVTGRGESPASSKPISINYRYYR
binding result [1]: binds

B26: SEQ ID NO 73 (designed binder)
chain: VSDVPRDLEVVAATPTSLLISWDAPAVTVRYYRITYGERGYPGQEFTVPGSKSTATISEYSHSVDYTITVYAVTGRGESPASSKPISINYAQYQ
binding result [1]: binds

B29: SEQ ID NO 66 (designed binder)
chain: VSDVPRDLEVVAATPTSLLISWDAPAVTVRYYRITYGEYYRSYYQEFTVPGSKSTATISSYEPPVDYTITVYAVTGRGESPASSKPISINYRRYL
binding result [1]: binds

B30: SEQ ID NO 77 (designed binder)
chain: B29 chain with Y40R, S42R, Y43A, Y44R, S60E, Y61H, P64L, R92Y, R93S, L95Y
binding result [1]: binds

B31: SEQ ID NO 80 (designed binder)
chain: B29 chain with Y39S, Y40R, Y44P, Y61S, E62H, P63R, P64S, R93S
binding result [1]: binds

B36: SEQ ID NO 69 (designed binder)
chain: VSDVPRDLEVVAATPTSLLISWDAPAVTVRYYRITYGEYRSSSYYQEFTVPGSKSTATISYPSERVDYTITVYAVTGRGESPASSKPISINYQSSA
binding result [1]: binds

B37: SEQ ID NO 60 (designed binder)
chain: VSDVPRDLEVVAATPTSLLISWDAPAVTVRYYRITYGEYRYAYAYGQEFTVPGSKSTATISRSSPRVDYTITVYAVTGRGESPASSKPISINYPRRY
binding result [1]: binds

B38: SEQ ID NO 79 (designed binder)
chain: VSDVPRDLEVVAATPTSLLISWDAPAVTVRYYRITYGERRRRYGQEFTVPGSKSTATISSRSRGVDYTITVYAVTGRGESPASSKPISINYLYPY
binding result [1]: binds

B39: SEQ ID NO 54 (designed binder)
chain: VSDVPRDLEVVAATPTSLLISWDAPAVTVRYYRITYGESLRSREGQEFTVPGSKSTATISGRQESVDYTITVYAVTGRGESPASSKPISINYGQRY
binding result [1]: binds
